Legend:
Test in all cases: Sialidase kinetic constants with soluble sialylglycoconjugate substrates
Format in all cases: biochemical, Chinese hamster
Settings in all cases: other: apparent; standard assay conditions; average of duplicates, relative error about 10%; 37.0 °C
[1] = substrate: CC(=O)N[C@H]1[C@H]([C@H](O)[C@H](O)CO)O[C@@](OC[C@H]2O[C@@H](O[C@H]3[C@H](O)[C@@H](O)C(O)O[C@@H]3CO)[C@H](O)[C@@H](O)[C@H]2O)(C(=O)O)C[C@@H]1O
Protocol: (§1) Fluorescent sialidase assays: Standard assay conditions for monitoring the enzyme activity during purification using the fluorescent substrate analog are: 1.3 mM 4-MUNeu5Ac, 50 mM phosphate buffer, pH 6.8, 0.3 mg bovine serum albumin and varying amounts of enzyme in a total volume of 30 μl. After addition of enzyme the samples are incubated at 37° C. in a shaking water bath for 5 minutes. The reaction is terminated and the fluorescence of the liberated umbelliferone is enhanced by the addition of 2 ml of 80 mM glycine-carbonate buffer, pH 9.7. Quantification of the product is made by measuring the fluorescence of the samples with excitation at 365 nm and emission at 450 nm using a standard of 4-methyl umbelliferone. A unit of enzyme activity is defined as a μmol/min of sialic acid liberated.
(§2) Sialidase assays with natural substrates: When natural substrates are tested with the purified enzyme, the amount of released sialic acid is measured using the thiobarbituric acid assay as modified by Uchida [Uchida et al. J. Biochem., 82:1425 (1977)] using sialic acid as standard. The amount of sialic acid in control samples, which include a complete assay mixture incubated without added enzyme is subtracted from each determination. All samples are cleared by centrifugation (1,000×G, 10 min) prior to determining the absorbance at 540 nm.
(§3) Enzyme kinetic parameters: Assay conditions (time and added enzyme) are modified for each substrate so that initial reaction rates are measured. Kinetic parameters are obtained from double reciprocal plots of the substrate saturation curves [Segel, I. H. John Wiley, New York, Enzyme Kinetics, 18 (1975)].

[2] = substrate: CC(=O)N[C@H]1[C@H]([C@H](O)[C@H](O)CO)O[C@@](O[C@H](CO)[C@@H](O)[C@@H]2OC(O)(C(=O)O)C[C@H](O)[C@H]2NC(C)=O)(C(=O)O)C[C@@H]1O
Protocol: as §1, §2, §3

[3] = substrate: CC(=O)N[C@H]1[C@H]([C@H](O)[C@H](O)CO)O[C@@](O[C@H]2[C@@H](O)[C@@H](CO)O[C@@H](O[C@H]3[C@H](O)[C@@H](O)C(O)O[C@@H]3CO)[C@@H]2O)(C(=O)O)C[C@@H]1O
Protocol: as §1, §2, §3

[4] = substrate: CC(=O)N[C@H]1[C@H]([C@H](O)[C@H](O)CO)O[C@@](Oc2ccc3c(C)cc(=O)oc3c2)(C(=O)O)C[C@@H]1O
Protocol: as §1, §2, §3

B1: CHO cell sialidase (Cricetulus griseus) (protein)
chain: MATCPVLQKETLFQTGDYAYRIPALIYLSKQKTLLAFAEKRLTKTDEHADLFVLRRGSYNADTHQVQWQAEEVVTQAYLEGHRSMSPCPLYDKQTRTLFLFFIAVRGQISEHHQLQTGVNVTRLCHITSTDHGKTWSAVQDLTDTTIGSTHQDWATFGVGPGHCLQLRNTAGSLLVPAYAYRKQPPIHAPAPSAFCFLSHDHGSTWELGHFVSQNSLECQVAEVGTGAERVVYLNARSCLGARVQAQSPNSGLDFQDNQVVSKLVEPPKGCHGSVIAFPNPTSKADALDVWLLYTHPTDSRKRTNLGVYLNQKPLDPTTWSAPTLLATGICAYSDLQNMGHGPDGSPQFGCLYESNNYEEIVFLMFTLKQAFPAVFGAQ
notes: The sialidase described was purified from the cell culture fluid of a single production cell line (CHO 14.16); endogenous in cells; host or cells: CHO 14.16 cells (purified from the cell culture fluid)
For B1, the Km [1] was 1200 µM, the Vmax [1] was 4 µmol/min/mg and the Km [2] was 3400 µM. For the same protein, the Vmax [2] was 11 µmol/min/mg, the Km [3] was 1300 µM and the Vmax [3] was 16 µmol/min/mg. It also gave a Km [4] of 400 µM and a Vmax [4] of 18 µmol/min/mg.
